# From patent US20260242478A1 (published 2026)
# B1: Phage-3044 (peptide)
# peptide: SLAVCKPSWMCAGF
# notes: Peptide-180 library clone, tested as clonal phage supernatant (pIII display)
# B2: Phage-3042 (peptide)
# peptide: YTMVCRPAWMCQGF
# notes: as for B1
# B3: Phage-3035 (peptide)
# peptide: LMPLCVPVWMCSGF
# notes: as for B1
# B4: Phage-3050 (peptide)
# peptide: ELYKCVPSWMCYGF
# notes: Peptide-180 library clone, tested as clonal phage supernatant (peptide fused to pIII of the bacteriophage)
# B5: Phage-3036 (peptide)
# peptide: IIPACVPPWMCSGF
# notes: as for B1
# B6: Phage-3045 (peptide)
# peptide: VIGWCVPQWMCSGF
# notes: as for B1
# B7: Phage-3046 (peptide)
# peptide: VDKVCRPMWMCAGF
# notes: as for B4
# B8: Phage-3047 (peptide)
# peptide: VGNMCVPEWMCVGF
# notes: as for B4
# B9: Phage-3048 (peptide)
# peptide: PGHVCRPAWMCEGF
# notes: as for B4
# B10: Phage-3054 (peptide)
# peptide: DWIRCLPAWMCTGF
# notes: as for B4
# B11: Phage-3034 (peptide)
# peptide: YAHICKPSWMCDGF
# notes: as for B1
# B12: Phage-3037 (peptide)
# peptide: PAVRCEPSWMCQGF
# notes: as for B1
# B13: Phage-3039 (peptide)
# peptide: VHNWCVPSWMCLGL
# notes: as for B1
# B14: Phage-3041 (peptide)
# peptide: EHLRCVPDWMCVGF
# notes: as for B1
# B15: Phage-3043 (peptide)
# peptide: PTVYCKPEWMCTGF
# notes: as for B1
# Experiments:
# PSMA Fab [1] = molecular target: T1, PSMA Fab; test: clonal phage ELISA on biotinylated PSMA Fab captured on neutravidin, anti-M13 HRP detection;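 further: crude clonal phage supernatants added to wells pretreated with PSMA antigen in blocking buffer or with blocking buffer only, then briefly incubated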
# T1 construct: Biotinylated and captured on neutravidin plates in the phage ELISA; also called Anti-PSMA Fab; 006 PSMA Fab
# Description: (§1) Clonal phage were harvested as crude supernatants and screened via standard ELISAs. […] Prior to the addition of clonal phage. wells were incubated with blocking buffer and PSMA antigen or blocking buffer alone. Without washing or aspirating, clonal phage supernatants were then added to the wells and incubated for a short time. Wells were then washed followed by detection of bound phage using a horse radish conjugated anti-M13 antibody.
# PSMA Fab [2] = molecular target: T1, PSMA Fab; test: clonal phage ELISA on captured PSMA Fab pre-incubated with PSMA antigen (competitor)
# Description: as §1
# PSMA Fab (006 PSMA Fab) [3] = molecular target: T2, PSMA Fab (006 PSMA Fab) (Fab biotinylated for capture on neutravidin plates (site not stated)); test: phage ELISA: clonal phage supernatant on biotinylated PSMA Fab captured on neutravidin plate, blocking buffer alone, anti-M13-HRP detection
# T2 construct: also called Anti-PSMA Fab; anti-PSMA Fab
# PSMA Fab (006 PSMA Fab) [4] = molecular target: T2, PSMA Fab (006 PSMA Fab); test: phage ELISA: clonal phage supernatant on biotinylated PSMA Fab captured on neutravidin plate, wells pre-incubated with PSMA antigen as competitor, anti-M13-HRP detection
# Description: as §1
# 006 PSMA Fab [5] = molecular target: T3, 006 PSMA Fab; test: clonal phage ELISA on biotinylated PSMA Fab captured on neutravidin, wells pre-incubated with PSMA antigen as competitor, anti-M13 HRP detection
# T3 construct: In the phage ELISA the Fab was biotinylated and captured on neutravidin coated plates; also called Anti-PSMA Fab
# Description: as §1
# 006 PSMA Fab [6] = molecular target: T3, 006 PSMA Fab; test: clonal phage ELISA on biotinylated PSMA Fab captured on neutravidin, anti-M13 HRP detection, no competitor
# Description: as §1
# PSMA Fab (006 PSMA Fab) [7] = molecular target: T4, PSMA Fab (006 PSMA Fab); test: phage ELISA; biotinylated PSMA Fab on neutravidin plate, clonal phage supernatant, anti-M13 HRP detection; blocking buffer alone
# T4 construct: also called Anti-PSMA Fab; anti-PSMA Fab
# Description: as §1
# PSMA Fab (006 PSMA Fab) [8] = molecular target: T4, PSMA Fab (006 PSMA Fab); test: phage ELISA; biotinylated PSMA Fab on neutravidin plate pre-incubated with PSMA antigen as competitor, clonal phage supernatant, anti-M13 HRP detection
# Description: as §1
binder,measurement,setting,value
B1,"Phage binding ELISA signal, Anti-PSMA Fab",PSMA Fab [1],2.17
same,"Phage binding ELISA signal, Anti-PSMA Fab with PSMA antigen",PSMA Fab [2],0.0813
VNHLCKPTWMCAGF [Phage-3077 (peptide-180 library clone)],"Phage binding ELISA signal, Anti-PSMA Fab",PSMA Fab (006 PSMA Fab) [3],2.12
same,"Phage binding ELISA signal, Anti-PSMA Fab in presence of PSMA",PSMA Fab (006 PSMA Fab) [4],0.0765
B2,"Phage binding ELISA signal, Anti-PSMA Fab",PSMA Fab [1],2.17
same,"Phage binding ELISA signal, Anti-PSMA Fab with PSMA antigen",PSMA Fab [2],0.0964
EEKMCVPLWMCSGF [Phage-3060],"Phage binding ELISA signal, Anti-PSMA Fab with PSMA antigen",006 PSMA Fab [5],0.0787
same,"Phage binding ELISA signal, Anti-PSMA Fab",006 PSMA Fab [6],2.15
B3,"Phage binding ELISA signal, Anti-PSMA Fab",PSMA Fab [1],2.18
same,"Phage binding ELISA signal, Anti-PSMA Fab with PSMA antigen",PSMA Fab [2],0.106
B4,"Phage binding ELISA signal, Anti-PSMA Fab",PSMA Fab (006 PSMA Fab) [7],2.16
same,"Phage binding ELISA signal, Anti-PSMA Fab in the presence of PSMA antigen",PSMA Fab (006 PSMA Fab) [8],0.0696
B5,"Phage binding ELISA signal, Anti-PSMA Fab",PSMA Fab [1],2.18
same,"Phage binding ELISA signal, Anti-PSMA Fab with PSMA antigen",PSMA Fab [2],0.212
B6,"Phage binding ELISA signal, Anti-PSMA Fab",PSMA Fab [1],2.17
same,"Phage binding ELISA signal, Anti-PSMA Fab with PSMA antigen",PSMA Fab [2],0.113
VQVLCVPSWMCHGF [Phage-3062],"Phage binding ELISA signal, Anti-PSMA Fab with PSMA antigen",006 PSMA Fab [5],0.0688
same,"Phage binding ELISA signal, Anti-PSMA Fab",006 PSMA Fab [6],2.15
IMMRCEPVWMCEGF [Phage-3072],"Phage binding ELISA signal, Anti-PSMA Fab with PSMA antigen",006 PSMA Fab [5],0.118
same,"Phage binding ELISA signal, Anti-PSMA Fab",006 PSMA Fab [6],2.13
B7,"Phage binding ELISA signal, Anti-PSMA Fab",PSMA Fab (006 PSMA Fab) [7],2.17
same,"Phage binding ELISA signal, Anti-PSMA Fab in the presence of PSMA antigen",PSMA Fab (006 PSMA Fab) [8],0.126
LEKACVPQWMCYGL [Phage-3070],"Phage binding ELISA signal, Anti-PSMA Fab with PSMA antigen",006 PSMA Fab [5],0.0938
same,"Phage binding ELISA signal, Anti-PSMA Fab",006 PSMA Fab [6],2.13
B8,"Phage binding ELISA signal, Anti-PSMA Fab",PSMA Fab (006 PSMA Fab) [7],2.17
same,"Phage binding ELISA signal, Anti-PSMA Fab in the presence of PSMA antigen",PSMA Fab (006 PSMA Fab) [8],0.0878
B9,"Phage binding ELISA signal, Anti-PSMA Fab",PSMA Fab (006 PSMA Fab) [7],2.17
same,"Phage binding ELISA signal, Anti-PSMA Fab in the presence of PSMA antigen",PSMA Fab (006 PSMA Fab) [8],0.106
B10,"Phage binding ELISA signal, Anti-PSMA Fab",PSMA Fab (006 PSMA Fab) [7],2.16
same,"Phage binding ELISA signal, Anti-PSMA Fab in the presence of PSMA antigen",PSMA Fab (006 PSMA Fab) [8],0.0848
ISPVCIPSWMCLGL [Phage-3069],"Phage binding ELISA signal, Anti-PSMA Fab with PSMA antigen",006 PSMA Fab [5],0.174
same,"Phage binding ELISA signal, Anti-PSMA Fab",006 PSMA Fab [6],2.13
B11,"Phage binding ELISA signal, Anti-PSMA Fab",PSMA Fab [1],2.18
same,"Phage binding ELISA signal, Anti-PSMA Fab with PSMA antigen",PSMA Fab [2],0.108
B12,"Phage binding ELISA signal, Anti-PSMA Fab",PSMA Fab [1],2.18
same,"Phage binding ELISA signal, Anti-PSMA Fab with PSMA antigen",PSMA Fab [2],0.161
VEIQCRPSWMCMGF [Phage-3063],"Phage binding ELISA signal, Anti-PSMA Fab with PSMA antigen",006 PSMA Fab [5],0.0951
same,"Phage binding ELISA signal, Anti-PSMA Fab",006 PSMA Fab [6],2.14
B13,"Phage binding ELISA signal, Anti-PSMA Fab",PSMA Fab [1],2.18
same,"Phage binding ELISA signal, Anti-PSMA Fab with PSMA antigen",PSMA Fab [2],0.099
B14,"Phage binding ELISA signal, Anti-PSMA Fab",PSMA Fab [1],2.17
same,"Phage binding ELISA signal, Anti-PSMA Fab with PSMA antigen",PSMA Fab [2],0.0886
B15,"Phage binding ELISA signal, Anti-PSMA Fab",PSMA Fab [1],2.17
same,"Phage binding ELISA signal, Anti-PSMA Fab with PSMA antigen",PSMA Fab [2],0.0869
